Results: patent US20160177324A1, “NOVEL PROTEIN AND GENE RELATED TO FLAVONOID O-METHYLTRANSFERASE (FOMT) AND THEIR USES THEREFORE” (INSTITUTE OF BOTANY, THE CHINESE ACADEMY OF SCIENCES, priority 2013, published 2016)

Columns and labels:
[1] = Biochemical characterization of PsFOMT reaction conditions (pH, temperature, divalent cations, Mg2+ concentration)
Description: For quantitative analyses, reaction conditions were optimized. The pH dependence of FOMTs activity was assessed in the pH range of 4.5 to 8.5 using MES (4.5-6.5) and Tris-HCl (7.5-8.5) buffer. The effect of divalent cations on enzyme activity was estimated by adding to the reaction mixture containing 10 mM MgCl2, CaCl2, ZnCl2, MnCl2, CoCl2 or EDTA. The proper concentration of metal ion was assessed by testing different concentrations of MgCl2 (0.1, 0.2, 0.5, 1.0, 5.0 and 10 mM). Incubation temperature was set at 25, 30, 35 and 40° C. to detect the effect on enzyme activity.
The reaction system was according to Hugueney et al. with some modification (Hugueney, P., et al., A novel cation-dependent O-methyltransferase involved in anthocyanin methylation in grapevine. Plant Physiology, 2009. 150(4): p. 2057-2070.). Purified recombinant FOMT (2 μg) was assayed in a final volume of 200 μL containing 200 μM SAM, 1 mM MgCl2, 14 mM β-mercaptoethanol, 100 mM Tris, pH 7.5, and 20 μM flavonoid substrates. Incubation was performed at 35° C. and stopped with 200 μL methanol containing 2% formic acid. For enzyme kinetic studies, purified FOMT was incubated based on the above condition with the exception that a range of substrate concentrations from 5 to 200 μM were used for Km determination. Reaction product was analyzed by a Dionex HPLC system (Sunnyvale, Calif.), equipped with a P680 HPLC pump, an UltiMate 3000 autosampler, a TCC-100 thermostated column compartment and a Dionex PDA100 photodiode array detector. The analytical column was C18 column of ODS 80Ts QA (150 mm×4.6 mm, 5 μm i.d., Tosoh, Tokyo) protected with a C18 guard cartridge (Shanghai ANPEL Scientific Instrument, Shanghai). The following solvent and gradient were used: A, 10% aqueous formic acid; B, methanol; constant gradient from 10 to 36% B within 15 min and back to 10% B in 3 min; the flow rate was 0.8 mL min^−1; Column temperature was maintained at 35° C.; 20 μL of analyte was injected. Chromatograms were obtained at 525 nm for anthocyanins and 350 nm for other flavonoids, and photodiode array spectra were recorded from 200 to 800 nm. Km and Vmax values were calculated from Lineweaver-Burk plots.

[2] = tested on: Nicotiana tabacum cv.Nc89; test: Flavonoid O-methyltransferase activity in transgenic tobacco; assay type: in vivo
From the text: The full length genes were introduced with a BamHl site and an XhoI site on 5′- and 3′-end by PCR with primers SEQ No. 5 & 6. The double digested fragment of interest and eukaryotic expression vector pBI121 with BamHl site and an XhoI were ligated. Then the appropriate constructs were introduced into Agrobacterium strain EHA105 by electroporation.
Leaf of Nicotiana tabacum cv.Nc89 plant (Donated by Professor Silan Dai, Beijing Forestry University) was disinfected by 75% ethanol for 30 s, followed by 2% sodium hypochlorite for 3 minutes, and then washed with sterile water for three times. The leaf was cut into squares (25 mm^2) A single colony of Agrobacterium strain EHA105 with pBI121-FOMT construct was used to inoculate with 2 mL of YEB medium (per liter: 5 g of beef extract, 1 g of yeast extract, 5 g of sucrose, and 0.5 g of MgSO4.7H2O), supplemented with 50 mg mL^−1 kanamycin and 25 mg mL^−1 Rifampicin. The culture was incubated at 28° C. until OD600 0.6-0.8, and the bacteria were pelleted by centrifugation at 5000 rpm for 5 minutes. The cells were washed by MS liquid medium and resuspended pellets with appropriate volume of MS liquid. The tobacco leaf squares were dipped into the bacteria solution for 8 minutes and cultivated on MS media containing 2.0 mg L^−1 6-benzylaminopurine (6-BA), 0.2 mg L^−1 1-naphthylacetic acid (NAA), and 500 mg L^−1 ceflomine. The explants were transferred to fresh selected medium after two weeks. When the regenerating plantlets grow to 2 cm, move them to MS media containing 0.2 mg L^−1 NAA to induce root. After four weeks, the transgenic tobacco plantlets were transferred to pots and kept in the greenhouse till flowering. The positive transgenic lines were selected by PCR, and transgenic plantlets with empty plasmid were used as control. The anthocyanins in transgenic petals were detected with an HPLC system.
Appropriate amount of sample (petal, fruits) was powdered with mortars and pestles and extracted for the first time with 2 mL 2% (v/v) formic acid methanol solution shaken in a QL-861 vortex (Kylinbell Lab Instruments, Jiangsu, China), sonicated in KQ-500DE ultrasonic cleaner (Ultrasonic instruments, Jiangsu Kunshan, China) at 20° C. for 20 min, centrifuged in SIGMA 3K30 (SIGMA centrifugers, Germany) (12000 rpm, 10 min), and the supernatant was collected. Additional 2 mL and 1 mL extraction solution was supplemented to the residue, and repeated aforesaid operation for the second and third times. All extract was pooled and filtrated through 0.22 μm reinforced nylon membrane filters (Shanghai ANPEL, Shanghai, China) before the HPLC-DAD and HPLC-ESI-MS^n analyses. Three replicates were performed for each sample. […]
HPLC-ESI-MS^n analysis was carried with an Agilent-1100 HPLC system equipped with a UV detector coupled to a LC-MSD Trap VL ion-trap mass spectrometer via an ESI source (Agilent Technologies, Palo Alto, Calif.). […] The MS conditions were listed as follow: negative-ion (NI) mode; capillary voltage of 3.5 kV; a nebulization pressure of 241.3 kPa; and a gas (N2) temperature of 350° C. with flow rate of 6.0 L min^−1 Capillary offset voltage was 77.2 V. MS spectra were recorded over the range from m/z 50-1000.

B1: PsFOMT: flavonoid O-methyltransferase from tree peony Paeonia suffruticosa cv. 'Gunpohden', SEQ ID NO: 3; recombinant MBP fusion protein (protein, listed as Paeonia suffruticosa)
chain: MAESDRKGILKSEALLKYILETSVYPREHEQLKQLRQATVDKYKYWSVMNVPADEGQFLSMLLKIMNAKKTIEVGVFTGYSLLTAALALPTDAKITAIDPDGEAYETGLPFIKKAGVEHKINYIQADAMSVLDDLVTNGKEEGSFDFAFVDADKENYAKYHEPLMKLVKIGGIIGYDNTLWFGSVALSDGDEMKEFQEKGRRIFREFNTFLAADPRIELAHISIGDGLALCRRLY
modifications: MBP fusion
notes: recombinant MBP fusion protein
[1]; 10 mM EDTA
  activity in the presence of EDTA: could not been detected
[1]; 10 mM MgCl2, CaCl2, ZnCl2, MnCl2, CoCl2
  influence of different divalent cations on activity: most active in the presence of Mg^2+
[1]; 25-40° C.
  effect of increasing incubation temperature on activity: accelerated
[1]; MgCl2 0.1-10 mM tested
  optimal concentration of Mg^2+: 1.0 mM
[1]; on the substrate of Qu3R
  pH optimum: 7.5
[1]; substrate Qu3R, pH 4.5 to 8.5 tested
  pH dependence range of activity in vitro: 6.5-8.5
[2]; transgenic tobacco flowers
  flower color compared with control lines: tend to purplish
[2]; transgenic tobacco petals vs empty vector
  methyltransferase function in tobacco petal (new anthocyanin Pn3R detected): performed as a methyltransferase
[2]; transgenic tobacco petals, 35S:: lines
  content of peonidin 3-O-rutinoside (Pn3R) in total anthocyanin (TA): much higher
